# Laboratory results taken from US11945881B2, “Neoantigens expressed in ovarian cancer and their uses” (Janssen Biotech, Inc., priority 2020, dated 2024).
# B1: ARLRELRQCGGGRGKRGQGWGVRDETITGRPAVLGSPFLSPALAPPSRLMGDLWDGQSAGWSPGSPASPFCGGW (peptide)
# chain: ARLRELRQCGGGRGKRGQGWGVRDETITGRPAVLGSPFLSPALAPPSRLMGDLWDGQSAGWSPGSPASPFCGGW
# notes: neoantigen, alternative splicing of HSF4
# B2: RDLQCPKKTQTPQAQSRLESERKKNTLTWLVPTPWDWRQWSTAPSRGLVWPPPPVDYELWKSS (peptide)
# chain: RDLQCPKKTQTPQAQSRLESERKKNTLTWLVPTPWDWRQWSTAPSRGLVWPPPPVDYELWKSS
# notes: neoantigen, alternative splicing of LRRC75B
# B3: HFVRSQDKGMVWTPEPSALPRTPRRHPGLSLCSQWGGLRVGPPAARPGWSLAHVLRVTLLQFHPNPGKETQKKQRCPKEDPSRIWRA (peptide)
# chain: HFVRSQDKGMVWTPEPSALPRTPRRHPGLSLCSQWGGLRVGPPAARPGWSLAHVLRVTLLQFHPNPGKETQKKQRCPKEDPSRIWRA
# notes: neoantigen, alternative splicing of RUFY4
# B4: HQYIVVQDIHTETQHSALGAQPADSIPPFLQHTLQHLACPSLELPGNEQARREKRRRDDAFSDSL (peptide)
# chain: HQYIVVQDIHTETQHSALGAQPADSIPPFLQHTLQHLACPSLELPGNEQARREKRRRDDAFSDSL
# notes: neoantigen, alternative splicing of SRGAP3
# System: CD8+ T cells
# Assay: exogenous autologous normal donor restimulation assay, TNFα/IFNγ double positive CD8+ T cells by flow cytometry
# Assay type: cell-based, human
# Settings: maximum CD8+ T-cell response (TNFα and IFNγ), donor independent; peptide pool 10 μg/mL; healthy donors
row,Molecule,Fold change (CD8+) vs. DMSO
1,B1,66.2 fold
2,B2,143.98 fold
3,B3,69.96 fold
4,B4,14.89 fold

# Same assay, conditions: maximum CD8+ T-cell response, donor independent; peptide pool 10 μg/mL; healthy donors
row,Molecule,Frequency (TNFα + IFNγ + CD8 T cells)
1,B1,0.62%
2,B2,1.28%
3,B3,1.87%
4,B4,0.16%

# Same assay, conditions: positive if CD8+ and/or CD4+ double positive TNFα/IFNγ frequency >=3-fold over DMSO and at least 0.01%
row,Molecule,Immunogenic (yes/no)
1,B1,Yes
2,B2,Yes
3,B3,Yes
4,B4,Yes

# System: CD4+ T cells
# Assay: exogenous autologous normal donor restimulation assay, TNFα/IFNγ double positive CD4+ T cells by flow cytometry
# Assay type: cell-based, human
# Settings: maximum CD4+ T-cell response (TNFα and IFNγ), donor independent; peptide pool 10 μg/mL; healthy donors
row,Molecule,Fold change (CD4+) vs. DMSO
1,B1,6.63 fold
2,B2,10.84 fold
3,B3,279.88 fold
4,B4,12.03 fold

# Same assay, conditions: maximum CD4+ T-cell response, donor independent; peptide pool 10 μg/mL; healthy donors
row,Molecule,Frequency (TNFα + IFNγ + CD4 T cells)
1,B1,0.043%
2,B2,0.047%
3,B3,0.28%
4,B4,0.078%
